The values that follow come from patent US20230136228A1 (LAMKAP BIO ALPHA, published 2023).

Where a chain is given by its changes, count along the chain named. Numbers in names are those of the source.

First the molecules themselves.
T1: human CEACAM6 (human, UniProt P40199 35-320)
T1 construct: whole, on cells; also called CD66c
T1 sequence (looked up): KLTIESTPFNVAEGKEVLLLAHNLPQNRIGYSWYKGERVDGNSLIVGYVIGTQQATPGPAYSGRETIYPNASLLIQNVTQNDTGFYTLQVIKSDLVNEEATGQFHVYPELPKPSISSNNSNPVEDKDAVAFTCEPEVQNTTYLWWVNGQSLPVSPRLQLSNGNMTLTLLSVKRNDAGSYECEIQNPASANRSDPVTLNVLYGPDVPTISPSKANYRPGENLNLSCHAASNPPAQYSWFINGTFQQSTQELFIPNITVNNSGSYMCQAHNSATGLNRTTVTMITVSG

T2: human CEACAM1 (human, UniProt P13688 35-526)
T2 construct: whole, on cells
T2 sequence (looked up): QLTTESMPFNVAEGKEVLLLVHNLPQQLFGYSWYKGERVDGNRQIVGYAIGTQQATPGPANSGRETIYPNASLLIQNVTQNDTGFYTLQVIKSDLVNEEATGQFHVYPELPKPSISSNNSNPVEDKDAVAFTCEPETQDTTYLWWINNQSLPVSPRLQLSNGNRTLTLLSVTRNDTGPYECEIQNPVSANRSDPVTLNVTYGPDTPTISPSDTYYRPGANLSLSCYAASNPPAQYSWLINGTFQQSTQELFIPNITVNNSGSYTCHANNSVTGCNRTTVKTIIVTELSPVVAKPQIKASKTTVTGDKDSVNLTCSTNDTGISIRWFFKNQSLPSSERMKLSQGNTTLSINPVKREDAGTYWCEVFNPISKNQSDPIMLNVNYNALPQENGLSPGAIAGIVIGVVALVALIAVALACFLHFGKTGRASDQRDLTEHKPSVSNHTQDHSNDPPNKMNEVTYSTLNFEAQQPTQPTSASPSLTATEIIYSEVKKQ

T3: human CEACAM3 (human, UniProt P40198 35-252)
T3 construct: whole, on cells
T3 sequence (looked up): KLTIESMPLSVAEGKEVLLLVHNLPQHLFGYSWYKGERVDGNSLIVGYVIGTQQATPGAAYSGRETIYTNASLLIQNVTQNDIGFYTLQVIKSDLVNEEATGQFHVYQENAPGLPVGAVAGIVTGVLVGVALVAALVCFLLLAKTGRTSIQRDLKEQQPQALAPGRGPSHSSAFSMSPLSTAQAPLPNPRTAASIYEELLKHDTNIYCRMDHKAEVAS

T4: shed soluble CEACAM5 (sCEA) (human, UniProt P06731 35-685, limits assumed)
T4 sequence (looked up): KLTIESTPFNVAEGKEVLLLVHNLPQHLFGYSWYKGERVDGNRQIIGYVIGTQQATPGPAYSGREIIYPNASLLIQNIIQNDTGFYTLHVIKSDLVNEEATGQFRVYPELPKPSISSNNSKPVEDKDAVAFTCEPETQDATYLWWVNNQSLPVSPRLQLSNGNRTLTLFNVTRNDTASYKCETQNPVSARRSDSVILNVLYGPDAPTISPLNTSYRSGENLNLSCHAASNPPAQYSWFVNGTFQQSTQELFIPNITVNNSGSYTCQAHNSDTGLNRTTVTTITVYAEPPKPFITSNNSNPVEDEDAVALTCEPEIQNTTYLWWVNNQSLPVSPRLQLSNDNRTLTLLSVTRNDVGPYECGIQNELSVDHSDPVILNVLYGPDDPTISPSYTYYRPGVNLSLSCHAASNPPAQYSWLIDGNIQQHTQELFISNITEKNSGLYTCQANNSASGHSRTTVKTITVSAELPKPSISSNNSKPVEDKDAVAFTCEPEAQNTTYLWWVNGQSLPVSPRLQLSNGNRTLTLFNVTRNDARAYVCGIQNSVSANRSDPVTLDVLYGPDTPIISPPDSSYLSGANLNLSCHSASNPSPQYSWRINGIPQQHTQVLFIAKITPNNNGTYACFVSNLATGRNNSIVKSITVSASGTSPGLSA

T5: human CEACAM5 (carcinoembryonic antigen, CEA), cell surface (human, UniProt P06731 35-685)
T5 construct: whole, on cells; also called CD66e
T5 sequence (looked up): T4 sequence (looked up)

B1: AB17L3-1/N (bispecific antibody, human IgG1, kappa, lambda, L234A L235A)
heavy: EVQLVESGGGLVQPGGSLKLSCAASGFTFNTYAMNWVRQAPGKGLEWVGRIRSKYNNYATYYADSVKDRFTISRDDSKNTAYLQMNSLKTEDTAVYYCVRHGNFGNSYVSWFAYWGQGTLVTVSSASTKGPSVFPLAPSSKSTSGGTAALGCLVKDYFPEPVTVSWNSGALTSGVHTFPAVLQSSGLYSLSSVVTVPSSSLGTQTYICNVNHKPSNTKVDKRVEPKSCDKTHTCPPCPAPEAAGGPSVFLFPPKPKDTLMISRTPEVTCVVVDVSHEDPEVKFNWYVDGVEVHNAKTKPREEQYNSTYRVVSVLTVLHQDWLNGKEYKCKVSNKALAAPIEKTISKAKGQPREPQVYTLPPSREEMTKNQVSLTCLVKGFYPSDIAVEWESNGQPENNYKTTPPVLDSDGSFFLYSKLTVDKSRWQQGNVFSCSVMHEALHNHYTQKSLSLSPG
light 1: EIVLTQSPATLSLSPGERATLSCRASQSVNSNLNWYQQKPGQAPRLLIYHGSNRATGIPARFSGSGSGTDFTLTISSLEPEDFAVYYCQQFDYFKEHNTFGQGTKVEIKRTVAAPSVFIFPPSDEQLKSGTASVVCLLNNFYPREAKVQWKVDNALQSGNSQESVTEQDSKDSTYSLSSTLTLSKADYEKHKVYACEVTHQGLSSPVTKSFNRGEC
light 2: QTVVTQEPSLTVSPGGTVTLTCRSSTGAVTTSNYANWFQQKPGQAPRGLIGGTNKRAPGTPARFSGSLLGGKAALTLSGAQPEDEAEYYCALWYKQRWVFGGGTKLTVLGQPKAAPSVTLFPPSSEELQANKATLVCLISDFYPGAVTVAWKADSSPVKAGVETTTPSKQSNNKYAASSYLSLTPEQWKSHRSYSCQVTHEGSTVEKTVAPTECS
notes: Kappa-lambda body, lead optimization wave 1
B2: AB1L3-1/N (bispecific antibody, human IgG1, kappa, lambda, L234A L235A)
heavy: B1 heavy
light 1: B1 light 1 with Y93L, F94R, K95H
light 2: B1 light 2
notes: Kappa-lambda body: common heavy chain (hIgG1 L234A+L235A+P329A), kappa CEA light chain AB1, lambda CD3 light chain L3-1 (1A4); also called parental KL bispecific antibody
B3: AB72L3-1/N (bispecific antibody, human IgG1, kappa, lambda, L234A L235A)
heavy: B1 heavy
light 1: B1 light 1 with G51S, S52T, A55P, T56R, H97Y
light 2: B1 light 2
notes: Kappa-lambda body, lead optimization wave 2
B4: AB73L3-1/N (bispecific antibody, human IgG1, kappa, lambda, L234A L235A)
heavy: B1 heavy
light 1: B1 light 1 with G51S, S52N, A55P, T56H, K95R, H97Y
light 2: B1 light 2
notes: as for B3
B5: AB71L3-1/N (bispecific antibody, human IgG1, kappa, lambda, L234A L235A)
heavy: B1 heavy
light 1: B1 light 1 with G51S, A55P, T56H
light 2: B1 light 2
notes: as for B3

The first assay concerns the target T1, human CEACAM6. In words: flow cytometry, transfected PEAK cells. From the text: (§1) Vectors encoding the full-length version of human CEACAM 1, 3, 4, 5, 6, 7, 8, 18, 19, 20 and […] are used to express these proteins at the surface of PEAK and/or CHO cells as described in Example 1. Similarly, vectors encoding the full-length version of cyno CEACAM 5 and 6 are also used to express these proteins at the surface of PEAK and/or CHO cells. Non-transfected PEAK and/or CHO cells are used as negative control. Cells are harvested, counted, checked for viability and resuspended at 3×10⁶ cells/ml in FACS buffer (PBS 2% BSA, 0.1% NaN₃). 100 μl of the cell suspension are distributed in V-bottom 96-well plates (3×10⁵ cells/well). The supernatant is removed by centrifugation 3 minutes at 4° C., 1300 rpm and the cells incubated for 15 minutes at 4° C. with increasing concentrations of the antibody according to the invention. The antibodies carrying the anti-CEACAM5 arms to test are diluted in FACS buffer and the concentration range is 30 pM-500 nM. Cells are washed twice with cold FACS buffer and re-incubated for further 15 minutes at 4° C. with a compatible anti-human IgG secondary antibody. Cells are washed twice with cold FACS buffer and resuspended in 300 μl FACS buffer with 1:1500-diluted TOPRO-3 (Invitrogen). Fluorescence is measured using a FACSCalibur™ (BD Biosciences) or a Cytoflex Platform (Beckman Coulter). Dose-response binding curves are fitted using GraphPad Prism8 software. In the same manner, CEACAM1, CEACAM6 and other CEACAMs can be characterized.
(§2) For the bispecific antibodies AB17L3-1/N, AB71L3-1/N, AB72L3-1/N, AB73L3-1/N the MFI measured for binding to CEACAM5 transfected cells was found between 29000 and 41000 (Table 2). In contrast MFI found by using PEAK cells transfected with CEACAM 1,3,4,6,8 were found below 1000 with the only exception of a strong signal for AB72L3-1/N on CEACAM8 transfected cells. When MFI values obtained on transfected cells expressing any given CEACAM are divided by the values obtained on WT PEAK cells, “factors to PEAK WT” can be calculated (Table 3).
For orientation: Flow cytometry measures light scatter and fluorescence of single cells or particles in a stream.
On to B1, for which the binding result is “no binding (tested: 10 mcg/ml)”.
Still for that read-out and setting: as for B2, the entry is “no binding (tested: 10 mcg/ml)”; as for B3, “no binding (tested: 10 mcg/ml)”.

For another assay, the target named is T2, human CEACAM1. Nature of the assay: flow cytometry, transfected PEAK cells.
From the text: as §1, §2
Take B1: the binding result is given as “no binding (tested: 10 mcg/ml)”.
Regarding B2, the binding result is recorded as “no binding (tested: 10 mcg/ml)”.
Same read-out and setting: as for B3, the entry is “no binding (tested: 10 mcg/ml)”.

For another assay, the target named is T3, human CEACAM3. Nature of the assay: flow cytometry, transfected PEAK cells.
From the text: as §1, §2
Take B1: the binding result is on record as “no binding (tested: 10 mcg/ml)”.
On the same count and under the same terms, as for B2, the entry is “no binding (tested: 10 mcg/ml)”.
Still for that read-out and setting: as for B3, the entry is “no binding (tested: 10 mcg/ml)”.

A further assay concerns the target T4, shed soluble CEACAM5 (sCEA). Nature of the assay: cell-based or functional assay.
On to B1, for which the “EC50 fold change compared to no shed CEA condition, sCEA 0 µg/mL (reference)” value came to 1 fold; the “EC50 fold change compared to no shed CEA condition, sCEA 0.2 µg/mL” value worked out at 3.2 fold; the “EC50 fold change compared to no shed CEA condition, sCEA 1 µg/mL” value stood at 5 fold; the “EC50 fold change compared to no shed CEA condition, sCEA 5 µg/mL” value was found to be 11 fold.
Take B4: the “EC50 fold change compared to no shed CEA condition, sCEA 0 µg/mL (reference)” value turned out to be 1 fold; the “EC50 fold change compared to no shed CEA condition, sCEA 0.2 µg/mL” value was determined as 0.8 fold; the “EC50 fold change compared to no shed CEA condition, sCEA 1 µg/mL” value was 2.9 fold; the “EC50 fold change compared to no shed CEA condition, sCEA 5 µg/mL” value came to 7.4 fold.
For B5, in that order: 1 fold, 0.6 fold, 4.2 fold and 5.5 fold.
Take B3: the “EC50 fold change compared to no shed CEA condition, sCEA 0 µg/mL (reference)” value was 1 fold; the “EC50 fold change compared to no shed CEA condition, sCEA 0.2 µg/mL” value turned out to be 1.2 fold; the “EC50 fold change compared to no shed CEA condition, sCEA 1 µg/mL” value was 2.4 fold; the “EC50 fold change compared to no shed CEA condition, sCEA 5 µg/mL” value came out at 7.3 fold.

For the next assay, the target named is T3, human CEACAM3. Nature of the assay: flow cytometry, transfected PEAK cells, 10 mcg/ml.
From the text: as §1, §2
Molecule B1 showed an MFI of 633 MFI.
On the same count and under the same terms, to B2 belongs 358 MFI.
Still for that read-out and setting: as for B4, the figure is 465 MFI; as for B5, 358 MFI.
Same read-out and setting: to B3 belongs 474 MFI.

The next assay has as its target T5, human CEACAM5 (carcinoembryonic …). Nature of the assay: flow cytometry, transfected PEAK cells, 10 mcg/ml.
From the text: as §1, §2
The molecule B1 came in with an MFI of 29200 MFI.
Same read-out and setting: to B2 belongs 7750 MFI; to B4, 36200 MFI.
The same measure, in the same setting: to B5 belongs 35100 MFI.
The same measure, in the same setting: to B3 belongs 41000 MFI.
